Reference: patent US20240245796A1 (PROFOUNDBIO US, published 2024)

What was measured:
[1] = molecular target: T1, human FOLR1 extracellular domain linked to His tag (human, UniProt P15328 25-233, limits assumed); assay: BLI, global 1:1 fit (250 nM row)
T1 construct: extracellular domain; It may be the same product as m13; also called Hu-FRα; Hu-Ag; not shown: His tag

[2] = molecular target: T2, human FOLR2 extracellular domain linked to His tag (human, UniProt P14207 17-230, limits assumed); assay: BLI, global 1:1 fit (250 nM row)
T2 construct: extracellular domain; Antigen in solution in BLI; also called Hu-FRb; not shown: His tag
T2 sequence (P14207 17-230 limits assumed): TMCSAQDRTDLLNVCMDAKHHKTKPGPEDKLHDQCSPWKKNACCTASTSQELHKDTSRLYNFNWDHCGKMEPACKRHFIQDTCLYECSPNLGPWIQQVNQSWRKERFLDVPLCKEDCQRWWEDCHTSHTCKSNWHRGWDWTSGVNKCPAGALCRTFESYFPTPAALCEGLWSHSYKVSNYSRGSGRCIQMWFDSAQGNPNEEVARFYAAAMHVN

[3] = molecular target: T1, human FOLR1 extracellular domain linked …; assay: BLI, global 1:1 fit (500 nM row)
[4] = molecular target: T2, human FOLR2 extracellular domain linked …; assay: BLI, global 1:1 fit (500 nM row)
[5] = molecular target: T1, human FOLR1 extracellular domain linked …; assay: BLI, global 1:1 fit (125 nM row)
[6] = molecular target: T3, cynomolgus monkey FOLR1 extracellular domain linked to His tag (cynomolgus monkey, UniProt A0A2K5U044 25-233); assay: BLI, global 1:1 fit (125 nM row)
T3 construct: extracellular domain; Antigen in solution in BLI; It may be the same product as m14; also called Cyno-Ag; not shown: His tag
T3 sequence (A0A2K5U044 entry or part of it): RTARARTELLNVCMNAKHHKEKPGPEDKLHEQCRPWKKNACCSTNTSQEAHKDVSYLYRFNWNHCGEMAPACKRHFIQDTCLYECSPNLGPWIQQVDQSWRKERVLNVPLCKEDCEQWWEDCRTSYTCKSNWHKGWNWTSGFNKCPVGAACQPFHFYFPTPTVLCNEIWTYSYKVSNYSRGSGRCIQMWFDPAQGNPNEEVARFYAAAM

[7] = molecular target: T1, human FOLR1 extracellular domain linked …; assay: BLI, global 1:1 fit (7.82 nM row)
[8] = molecular target: T2, human FOLR2 extracellular domain linked …; assay: BLI, global 1:1 fit (7.82 nM row)
[9] = molecular target: T1, human FOLR1 extracellular domain linked …; assay: BLI, global 1:1 fit (15.6 nM row)
[10] = molecular target: T1, human FOLR1 extracellular domain linked …; assay: BLI, Ag 500 nM over Ab on anti-hIgG Fc tip
[11] = molecular target: T2, human FOLR2 extracellular domain linked …; assay: BLI, Ag 500 nM over Ab on anti-hIgG Fc tip
[12] = molecular target: T1, human FOLR1 extracellular domain linked …; assay: BLI, Ag 15.6 nM over Ab on anti-hIgG Fc tip
[13] = molecular target: T3, cynomolgus monkey FOLR1 extracellular …; assay: BLI, Ag 15.6 nM over Ab on anti-hIgG Fc tip
[14] = molecular target: T2, human FOLR2 extracellular domain linked …; assay: BLI, Ag 31.3 nM; * = below range of quantification
[15] = molecular target: T4, human FOLR3 extracellular domain linked to His tag (human, UniProt P41439 23-245, limits assumed); assay: BLI, Ag 31.3 nM; * = below range of quantification
T4 construct: extracellular domain; Antigen in solution in BLI; also called Hu-FRg; not shown: His tag
T4 sequence (P41439 23-245 limits assumed): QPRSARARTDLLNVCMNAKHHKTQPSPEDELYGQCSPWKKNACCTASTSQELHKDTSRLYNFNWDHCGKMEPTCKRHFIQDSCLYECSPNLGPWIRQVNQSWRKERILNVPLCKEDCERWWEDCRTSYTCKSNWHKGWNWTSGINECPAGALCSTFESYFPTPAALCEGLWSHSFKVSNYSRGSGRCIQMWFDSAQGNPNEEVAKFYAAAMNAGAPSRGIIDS

[16] = molecular target: T5, rat FOLR1 extracellular domain linked to His tag (rat); assay: BLI, Ag 7.82 nM; * = below range of quantification
T5 construct: extracellular domain; Antigen in solution in BLI; also called Rat-Ag

[17] = molecular target: T5, rat FOLR1 extracellular domain linked …; assay: BLI, global 1:1 fit (125 nM row); all responses below quantification
[18] = molecular target: T5, rat FOLR1 extracellular domain linked …; assay: BLI, global 1:1 fit (250 nM row); all responses below quantification
[19] = molecular target: T4, human FOLR3 extracellular domain linked …; assay: BLI, global 1:1 fit (15.6 nM row); all responses below quantification
[20] = molecular target: T4, human FOLR3 extracellular domain linked …; assay: BLI, global 1:1 fit (62.5 nM row); all responses below quantification
[21] = molecular target: T5, rat FOLR1 extracellular domain linked …; assay: as above
[22] = molecular target: T6, mouse FOLR1 extracellular domain linked to His tag (mouse, UniProt P35846 25-232, limits assumed); assay: BLI, global 1:1 fit (500 nM row); only the 500 nM response quantifiable
T6 construct: extracellular domain; Antigen in solution in BLI; also called Mouse-Ag; not shown: His tag
T6 sequence (P35846 25-232 limits assumed): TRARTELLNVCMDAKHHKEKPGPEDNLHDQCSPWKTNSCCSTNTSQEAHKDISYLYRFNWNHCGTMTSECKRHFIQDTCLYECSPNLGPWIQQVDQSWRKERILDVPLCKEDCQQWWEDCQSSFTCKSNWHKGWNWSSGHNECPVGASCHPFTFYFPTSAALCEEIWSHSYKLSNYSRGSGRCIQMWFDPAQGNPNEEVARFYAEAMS

[23] = molecular target: T6, mouse FOLR1 extracellular domain linked …; assay: BLI, global 1:1 fit (31.3 nM row); only the 500 nM response quantifiable

T1 sequence (P15328 25-233 limits assumed): as the sequence (A0A2K5U044 entry or part of it) above, with T2I, R4W, K37R, P146A, Y171H counted along it

B1: F131 (antibody, V domains shown)
VH: EVQLLESGGGVVQPGRSLRLSCAASGFTFSSYGMHWVRQAPGKGLEWVAVISYDGSNKYYADSVKGRFTISRANSKNTLYLQMNSLRAEDTAVYYCARPRAYYGAYGSSFDYWGQGTQVTVSS
VL: EIVMTQSPSSVSASVGDRVAITCRASQGISSWLAWYQQKPGKAPKLLIYAASSLQSGVPSRFSGSGSGTDFTLTISSLQPEDFATYYCQQSYSTPLTFGGGTKVDIK
notes: also called clone F131; F131 mAb
For B1, the Kd [1] was 5.3 nM, the koff [1] was 0.0012 s⁻¹ and the kon [1] was 226000 M⁻¹ s⁻¹. It also gave a Kd [2] of 142 nM, a koff [2] of 0.0784 s⁻¹ and a kon [2] of 552000 M⁻¹ s⁻¹. The koff [3] was 0.0012 s⁻¹, the kon [3] was 226000 M⁻¹ s⁻¹ and the Kd [4] was 142 nM. For the same binder, the koff [4] was 0.0784 s⁻¹, the kon [4] was 552000 M⁻¹ s⁻¹ and the Kd [5] was 1.53 nM. It also gave a koff [5] of 0.000338 s⁻¹, a kon [5] of 221000 M⁻¹ s⁻¹ and a Kd [6] of 8.15 nM. For the same binder, the koff [6] was 0.00157 s⁻¹, the kon [6] was 193000 M⁻¹ s⁻¹ and the Kd [7] was 5.3 nM. It also gave a koff [7] of 0.0012 s⁻¹, a kon [7] of 226000 M⁻¹ s⁻¹ and a Kd [8] of 142 nM. For the same binder, the koff [8] was 0.0784 s⁻¹, the kon [8] was 552000 M⁻¹ s⁻¹ and the Kd [9] was 1.53 nM. The koff [9] was 0.000338 s⁻¹, the kon [9] was 221000 M⁻¹ s⁻¹ and the Response [10] was 0.192. It also gave a Response [11] of 0.037, a Response [12] of 0.0503 and a Response [13] of 0.0485. For the same binder, the Response [14] was 0.0068, the Response [15] was 0.0028 and the Response [16] was -0.00563. For the same binder, the koff [17] was 1.03 s⁻¹, the kon [17] was 5490 M⁻¹ s⁻¹ and the koff [18] was 1.03 s⁻¹. The kon [18] was 5490 M⁻¹ s⁻¹, the koff [19] was 0.217 s⁻¹ and the kon [19] was 1660 M⁻¹ s⁻¹. The koff [20] was 0.217 s⁻¹, the kon [20] was 1660 M⁻¹ s⁻¹ and the koff [21] was 1.03 s⁻¹. It also gave a kon [21] of 5490 M⁻¹ s⁻¹, a koff [22] of 0.301 s⁻¹ and a kon [22] of 102000 M⁻¹ s⁻¹. It also gave a Kd [23] of 2960 nM, a koff [23] of 0.301 s⁻¹ and a kon [23] of 102000 M⁻¹ s⁻¹.

B2: F131-LD038 (antibody, V domains shown)
VH: EVQLLESGGGVVQPGRSLRLSCAASGFTFSSYGMHWVRQAPGKGLEWVAVISYDGSNKYYADSVKGRFTISRANSKNTLYLQMNSLRAEDTAVYYCARPRAYYGAYGSSFDYWGQGTQVTVSS
VL: EIVMTQSPSSVSASVGDRVAITCRASQGISSWLAWYQQKPGKAPKLLIYAASSLQSGVPSRFSGSGSGTDFTLTISSLQPEDFATYYCQQSYSTPLTFGGGTKVDIK
modifications: drug-linker LD038 (PB038, maleimide-PEG unit-Val-Cit-PAB-exatecan) on cysteines freed by TCEP reduction; positions not given
notes: Antibody-drug conjugate of F131 (IgG1) with LD038; also called anti-huFOLR-1 conjugate F131-LD038; F131-038
B2 was tested, and the Kd [1] was 4.79 nM, the koff [1] was 0.00121 s⁻¹ and the kon [1] was 252000 M⁻¹ s⁻¹. It also gave a Kd [2] of 84.4 nM, a koff [2] of 0.0813 s⁻¹ and a kon [2] of 963000 M⁻¹ s⁻¹. It also gave a Kd [3] of 4.79 nM, a koff [3] of 0.00121 s⁻¹ and a kon [3] of 252000 M⁻¹ s⁻¹. The Kd [4] was 84.4 nM, the koff [4] was 0.0813 s⁻¹ and the kon [4] was 963000 M⁻¹ s⁻¹. It also gave a Kd [5] of 4.8 nM, a koff [5] of 0.00107 s⁻¹ and a kon [5] of 224000 M⁻¹ s⁻¹. The Kd [6] was 8.82 nM, the koff [6] was 0.0016 s⁻¹ and the kon [6] was 181000 M⁻¹ s⁻¹. For the same binder, the Kd [7] was 4.79 nM, the koff [7] was 0.00121 s⁻¹ and the kon [7] was 252000 M⁻¹ s⁻¹. The Kd [8] was 84.4 nM, the koff [8] was 0.0813 s⁻¹ and the kon [8] was 963000 M⁻¹ s⁻¹. It also gave a Kd [9] of 4.8 nM, a koff [9] of 0.00107 s⁻¹ and a kon [9] of 224000 M⁻¹ s⁻¹. It also gave a Response [10] of 0.222, a Response [11] of 0.0427 and a Response [12] of 0.0447. For the same binder, the Response [13] was 0.0384, the Response [14] was 0.0076 and the Response [15] was 0.0079. It also gave a Response [16] of -0.00438, a koff [17] of 0.224 s⁻¹ and a kon [17] of 2.64e+06 M⁻¹ s⁻¹. It also gave a koff [18] of 0.224 s⁻¹, a koff [19] of 0.233 s⁻¹ and a koff [20] of 0.233 s⁻¹. The koff [21] was 0.224 s⁻¹, the kon [21] was 2.64e+06 M⁻¹ s⁻¹ and the Kd [22] was 2870 nM. For the same binder, the koff [22] was 0.266 s⁻¹, the kon [22] was 92600 M⁻¹ s⁻¹ and the Kd [23] was 2870 nM. It also gave a koff [23] of 0.266 s⁻¹ and a kon [23] of 92600 M⁻¹ s⁻¹.
